First the molecules themselves.
T1: FcγRIIb (human, UniProt P31994 43-217, limits assumed)
T1 construct: SPR analyte; also called FcγIIB; CD32
T1 sequence: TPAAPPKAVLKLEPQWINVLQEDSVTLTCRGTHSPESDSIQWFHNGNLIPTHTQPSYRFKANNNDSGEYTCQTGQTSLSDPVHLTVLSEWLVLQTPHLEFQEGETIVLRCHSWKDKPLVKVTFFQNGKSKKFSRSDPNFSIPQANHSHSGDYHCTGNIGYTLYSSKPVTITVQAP

T2: FcγRIIa type H (human, UniProt P12318 36-217)
T2 construct: SPR analyte; also called FcγRIIaH
T2 sequence: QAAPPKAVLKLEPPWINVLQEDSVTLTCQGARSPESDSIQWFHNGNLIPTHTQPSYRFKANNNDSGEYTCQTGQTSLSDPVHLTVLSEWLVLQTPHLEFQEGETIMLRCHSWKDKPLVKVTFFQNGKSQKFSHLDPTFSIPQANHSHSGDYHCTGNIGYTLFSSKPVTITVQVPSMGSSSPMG

T3: FcγRIIa type R (human, UniProt P12318 36-217)
T3 construct: SPR analyte; also called FcγRIIaR; FcγRIIa(R)
T3 chain: T2 sequence with H133R

B1: IL6R-BF648/IL6R-L (antibody, human IgG1)
heavy: not shown
light: DIQMTQSPSSLSASVGDRVTITCRASQDISSYLNWYQQKPGKAPKLLIYYTSRLHSGVPSRFSGSGSGTDFTFTISSLQPEDIATYYCQQGNTLPYTFGQGTKVEIK
B2: IL6R-BP130/IL6R-L (antibody, human IgG1)
heavy: QVQLQESGPGLVKPSETLSLTCAVSGHSISHDHAWSWVRQPPGEGLEWIGFISYSGITNYNPSLQGRVTISRDNSKNTLYLQMNSLRAEDTAVYYCARSLARTTAMDYWGEGTLVTVSSASTKGPSVFPLAPSSKSTSGGTAALGCLVKDYFPEPVTVSWNSGALTSGVHTFPAVLQSSGLYSLSSVVTVPSSSLGTQTYICNVNHKPSNTKVDKKVEPKSCDKTHTCPPCPAPDLLGGDSVFLFPPKPKDTLMISRTPEVTCVVVDVSHEDPEVKFNWYVDGVEVHNAKTKPREEQYNSTYRVVSVLTVLHQDWLNGKEYKCKMSNKALPKPIEKTISKAKGQPREPQVYTLPPSRDELTKNQVSLTCLVKGFYPSDIAVEWESNGQPENNYKTTPPVLDSDGSFFLYSKLTVDKSRWQQGNVFSCSVMHEALHNHYTQESLSLSP
light: B1 light
B3: IL6R-BP149/IL6R-L (antibody, human IgG1)
heavy: B2 heavy with L236Y, G239D, Y298D, M325V, K328A
light: B1 light
B4: IL6R-BP180/IL6R-L (antibody, human IgG1)
heavy: B2 heavy with D235E, G239D, P273G, M325V
light: B1 light
B5: IL6R-BP143/IL6R-L (antibody, human IgG1)
heavy: B2 heavy with D235E, L236Y, M325V, K328A, K332A
light: B1 light
B6: IL6R-BP086/IL6R-L (antibody, human IgG1)
heavy: B2 heavy with D235E, M325V, K328A
light: B1 light
B7: IL6R-BP131/IL6R-L (antibody, human IgG1)
heavy: B2 heavy with G239D, M325V
light: B1 light
B8: IL6R-BP087/IL6R-L (antibody, human IgG1)
heavy: B2 heavy with D235E, L236Y, M325V
light: B1 light
B9: IL6R-BP150/IL6R-L (antibody, human IgG1)
heavy: B2 heavy with D235E, L236Y, G239D, M325V, K328A, K332R
light: B1 light
B10: IL6R-BP177/IL6R-L (antibody, human IgG1)
heavy: B2 heavy with L236Y, G239D, P273G, M325V, K328D
light: B1 light
B11: IL6R-BP151/IL6R-L (antibody, human IgG1)
heavy: B2 heavy with L236Y, G239D, M325V, K328A, K332R
light: B1 light

Changes are numbered by the printed parent chain.

One assay concerns the target T1, FcγRIIb. Put plainly: ratio of SPR KDs: KD for FcγRIIaH over KD for FcγRIIb.
Description: (§1) Furthermore, KD(IIaR)/KD(IIb) and KD(IIaH)/KD(IIb) in the table respectively represent the value obtained by dividing the KD value of each variant for FcγRIIaR by the KD value of each variant for FcγRIIb, and the value obtained by dividing the KD value of each variant for FcγRIIaH by the KD value of each variant for FcγRIIb.
For the molecule B1, the “KD(IIaH)/KD(IIb)” value stood at 33.9.

For the molecule B2, the “KD(IIaH)/KD(IIb)” value stood at 85.5.

As to B3, the “KD(IIaH)/KD(IIb)” value is 89.9.

As for B4, the “KD(IIaH)/KD(IIb)” value was determined as 191.

Turning to B5, the “KD(IIaH)/KD(IIb)” value was found to be 47.1.

On to B6, for which the “KD(IIaH)/KD(IIb)” value was 59.9.

Turning to B7, the “KD(IIaH)/KD(IIb)” value turned out to be 56.9.

As for B8, the “KD(IIaH)/KD(IIb)” value came to 34.7.

Turning to B9, the “KD(IIaH)/KD(IIb)” value stood at 109.

Turning to B10, the “KD(IIaH)/KD(IIb)” value was determined as 159.

Take B11: the “KD(IIaH)/KD(IIb)” value was determined as 118.

A further assay deals with T2, FcγRIIa type H. The assay is described as follows: SPR (Biacore), antibody captured, FcγR analyte.
By Kd is commonly meant the equilibrium constant for the complex coming apart. Read a low Kd as a tighter complex. Molecule B1 gave a Kd of 40 µM.

Molecule B2 yielded a Kd of 26 µM.

Take B3: binding was put at a Kd of 8.4 µM.

Molecule B4 registered a Kd of 18 µM.

B5 showed a Kd of 27 µM.

Molecule B6 yielded a Kd of 34 µM.

Molecule B7 had a Kd of 14 µM. Against the preceding molecule, the Kd is about 2.4-fold lower.

As to B8, the Kd came out at 21 µM.

In turn, B9 showed a Kd of 3.4 µM. This Kd lies about 6.2-fold lower than the previous one.

The molecule B10 returned a Kd of 8.2 µM. This Kd is about 2.4-fold higher than that of the molecule before.

Regarding B11, the Kd was determined as 4.7 µM.

For the next assay, the target named is T4, FcγRIIIa type V (human, UniProt P08637 17-208, limits assumed).
T4 construct: SPR analyte; allotype V158 was used here; also called FcγRIIIaV; FcγRIIIa(V)
T4 sequence (P08637 other isoform, or with tags, fused parts or gaps limits assumed): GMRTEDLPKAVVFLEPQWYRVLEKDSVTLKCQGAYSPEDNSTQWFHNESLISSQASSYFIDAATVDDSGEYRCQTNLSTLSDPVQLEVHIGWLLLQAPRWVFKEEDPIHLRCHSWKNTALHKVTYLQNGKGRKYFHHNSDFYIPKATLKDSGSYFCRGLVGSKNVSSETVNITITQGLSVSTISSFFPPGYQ
Put plainly: SPR (Biacore), antibody captured, FcγR analyte. (Surface plasmon resonance follows binding to a sensor surface in real time, without labels.)
On to B1, for which the affinity, expressed as Kd, was 71 µM. In other words, the double-digit micromolar range.

B2 had a Kd of 71 µM. That is a double-digit micromolar value.

B3 gave a Kd of 37 µM.

In turn, B4 had a Kd of 70 µM.

Turning to B5, the Kd turned out to be 62 µM.

B6: the Kd amounted to 57 µM.

B7: the affinity, expressed as Kd, was 59 µM. This Kd and that of the molecule before are within 1.5-fold of each other.

Turning to B8, binding was put at a Kd of 44 µM.

The molecule B9 returned a Kd of 34 µM.

B10 returned a Kd of 37 µM.

In the case of B11, the equilibrium dissociation constant (Kd) amounted to 31 µM.

A further assay concerns the target T1, FcγRIIb. The assay is described as follows: SPR (Biacore), antibody captured, FcγR analyte.
B1 showed a Kd of 1200 nM. This lies in the single-digit micromolar range.

B2 showed a Kd of 300 nM.

The molecule B3 had a Kd of 93 nM. This Kd is about 3.2-fold lower than that of the molecule before.

Regarding B4, the Kd was found to be 62 nM.

As for B5, the Kd is 570 nM.

B6 registered a dissociation constant (Kd) of 570 nM.

B7: binding was put at a Kd of 250 nM.

Consider B8, for which the affinity, expressed as Kd, was 610 nM.

B9 displayed a Kd of 31 nM.

On to B10, for which binding was characterised by a dissociation constant (Kd) of 52 nM. Compared with the last molecule, the Kd is about 1.7-fold higher.

The molecule B11 displayed a Kd of 40 nM.

For another assay, the target named is T5, FcγRIa (human, UniProt P12314 16-292, limits assumed).
T5 construct: SPR analyte; also called CD64
T5 sequence (P12314 16-292 limits assumed): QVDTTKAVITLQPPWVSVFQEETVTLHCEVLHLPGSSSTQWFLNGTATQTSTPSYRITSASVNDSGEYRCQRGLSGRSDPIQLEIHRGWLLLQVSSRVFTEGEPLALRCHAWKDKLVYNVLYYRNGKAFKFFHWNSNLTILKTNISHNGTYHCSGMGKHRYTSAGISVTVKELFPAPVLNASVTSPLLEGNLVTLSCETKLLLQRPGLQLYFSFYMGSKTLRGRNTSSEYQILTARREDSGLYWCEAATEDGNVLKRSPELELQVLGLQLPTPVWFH
The assay is described as follows: SPR (Biacore), antibody captured, FcγR analyte.
As to B1, the Kd turned out to be 11 nM. This lies in the double-digit nanomolar range.

On to B2, for which the Kd is 1.8 nM.

B3: the Kd was found to be 120 nM.

B5: binding was put at a Kd of 16 nM.

With B6, binding was characterised by a dissociation constant (Kd) of 27 nM.

With B7, the Kd is 120 nM.

In turn, B8 yielded a Kd of 38 nM.

For B9, binding was characterised by a dissociation constant (Kd) of 320 nM.

As for B10, the affinity, expressed as Kd, was 33 nM.

For B11, the dissociation constant Kd came out at 84 nM.

For another assay, the target named is T3, FcγRIIa type R. The assay is described as follows: SPR (Biacore), antibody captured, FcγR analyte.
For B1, binding was put at a Kd of 15 µM.

In turn, B2 displayed a Kd of 5.3 µM. This Kd lies about 2.8-fold lower than the previous one.

B3 gave a Kd of 1.4 µM. Against the preceding molecule, the Kd is about 3.8-fold lower.

On to B4, for which binding was characterised by a dissociation constant (Kd) of 1.2 µM.

As for B5, the Kd was 5.7 µM.

The molecule B6 returned a Kd of 9.7 µM.

Take B7: the Kd came out at 3.1 µM. This Kd lies about 3.1-fold lower than the previous one.

In turn, B8 yielded a Kd of 9.7 µM.

B9 came in with a Kd of 0.55 µM. This Kd lies about 18-fold lower than the previous one.

Consider B10, for which the Kd stood at 0.71 µM.

The molecule B11 gave a Kd of 0.67 µM.

The target in a further assay is T3, FcγRIIa type R. Put plainly: ratio of SPR KDs; stronger receptor here FcγRIIaR; reference IL6R-B3/IL6R-L (FcγRIIaH).
Description: (§2) Furthermore, KD(IIaR)/KD(IIb) and KD(IIaH)/KD(IIb) in the table respectively represent the value obtained by dividing the KD value of each variant for FcγRIIaR by the KD value of each variant for FcγRIIb, and the value obtained by dividing the KD value of each variant for FcγRIIaH by the KD value of each variant for FcγRIIb. KD(IIb) of the parent polypeptide/KD(IIb) of the altered polypeptide refers to the value obtained by dividing the KD value of the parent polypeptide for FcγRIIb by the KD value of each variant for FcγRIIb.
In the case of B1, the “KD of the stronger of FcγRIIaR/FcγRIIaH binding of the variant / that of the parent polypeptide” value came to 19.9.

As for B2, the “KD of the stronger of FcγRIIaR/FcγRIIaH binding of the variant / that of the parent polypeptide” value was determined as 6.9.

Turning to B3, the “KD of the stronger of FcγRIIaR/FcγRIIaH binding of the variant / that of the parent polypeptide” value was found to be 1.8.

B4: the “KD of the stronger of FcγRIIaR/FcγRIIaH binding of the variant / that of the parent polypeptide” value turned out to be 1.5.

Turning to B5, the “KD of the stronger of FcγRIIaR/FcγRIIaH binding of the variant / that of the parent polypeptide” value turned out to be 7.5.

B6: the “KD of the stronger of FcγRIIaR/FcγRIIaH binding of the variant / that of the parent polypeptide” value was 12.6.

As for B7, the “KD of the stronger of FcγRIIaR/FcγRIIaH binding of the variant / that of the parent polypeptide” value came to 4.

Take B8: the “KD of the stronger of FcγRIIaR/FcγRIIaH binding of the variant / that of the parent polypeptide” value is 12.6.

Regarding B9, the “KD of the stronger of FcγRIIaR/FcγRIIaH binding of the variant / that of the parent polypeptide” value stood at 0.7.

As for B10, the “KD of the stronger of FcγRIIaR/FcγRIIaH binding of the variant / that of the parent polypeptide” value came to 0.9.

Turning to B11, the “KD of the stronger of FcγRIIaR/FcγRIIaH binding of the variant / that of the parent polypeptide” value was found to be 0.9.

The next assay concerns the target T1, FcγRIIb. Put plainly: ratio of SPR KDs; reference IL6R-B3/IL6R-L.
Description: as §2
Turning to B1, the “KD(IIb) of the parent polypeptide/KD(IIb) of altered polypeptide” value (“KD(IIb) … of altered polypeptide” below) turned out to be 2.5.

Take B2: the “KD(IIb) … of altered polypeptide” value is 10.2.

As for B3, the “KD(IIb) … of altered polypeptide” value stood at 33.1.

On to B4, for which the “KD(IIb) … of altered polypeptide” value was 49.9.

B5: the “KD(IIb) … of altered polypeptide” value stood at 5.4.

B6: the “KD(IIb) … of altered polypeptide” value is 5.4.

On to B7, for which the “KD(IIb) … of altered polypeptide” value turned out to be 12.6.

For B8, the “KD(IIb) … of altered polypeptide” value was 5.1.

On to B9, for which the “KD(IIb) … of altered polypeptide” value was 99.

Turning to B10, the “KD(IIb) … of altered polypeptide” value is 60.

In the case of B11, the “KD(IIb) … of altered polypeptide” value is 77.4.

For another assay, the target named is T1, FcγRIIb. Put plainly: ratio of SPR KDs: KD for FcγRIIaR over KD for FcγRIIb.
Description: as §1
For the molecule B1, the “KD(IIaR)/KD(IIb)” value is 13.

B2: the “KD(IIaR)/KD(IIb)” value came to 17.5.

As to B3, the “KD(IIaR)/KD(IIb)” value worked out at 15.

Regarding B4, the “KD(IIaR)/KD(IIb)” value stood at 18.6.

As to B5, the “KD(IIaR)/KD(IIb)” value stood at 10.

For the molecule B6, the “KD(IIaR)/KD(IIb)” value was 17.1.

Regarding B7, the “KD(IIaR)/KD(IIb)” value turned out to be 12.5.

With B8, the “KD(IIaR)/KD(IIb)” value was found to be 16.

For the molecule B9, the “KD(IIaR)/KD(IIb)” value turned out to be 17.7.

Consider B10, for which the “KD(IIaR)/KD(IIb)” value was 13.8.

For the molecule B11, the “KD(IIaR)/KD(IIb)” value came to 16.9.

The values above are taken from patent US20200199241A1 (Chugai, published 2020).
